According to IntAct's records for PubMed 17129783:

B1: Kinetochore protein ndc-80 (Caenorhabditis elegans), Q17635 (parent)
chain: MFGDRRKTGGLNLNGRASIAITPTKRFTDYTGSTSVRKTDARPSLSQPRVSLFNTKNSSVAPRDVKSLVSLNGSKIYNFLVEYESSDAPSEQLIMKPRGKNDFIACFELIYQHLSKDYEFPRHERIEEEVSQIFKGLGYPYPLKNSYYQPMGSSHGYPHLLDALSWLIDIIRINSAVSEDTQNILFGDFMEQGKAQEKTLNYAWMTSTFRDYTNDRKAAENPSSSYWDDTKHRLRKYFEQSNEFEDMTKTAASALEMLNYECDEIEADKGNEASLKEEISRIRDDIRKAKDYLEQNLHVKQHMEKELAMVKSEQEEKISENEKVQKMVDDLKNKIELQKQIHGLTGKEVRQMNLDNNKDKEVVLEIQSELDRLSKETWKLKDEDFFKEQKSKFIHLAEQIMKILSGLNIQMNLEPLRAPTNERDLKDYWETLNKIWVPEISRQLHQRKLELETEQSRFSNKAVTAEERIQIQSETLCEAKKNEAREERIRRNERDSWKDARKHIEQRYEQLLNEKEVLLKQMKLDGSLEKEIEDETARMSATGEEHIQKRSQLEAGIRQILDLMVVEIAEIENKKIGFHVQCAGIEKAVL
partner: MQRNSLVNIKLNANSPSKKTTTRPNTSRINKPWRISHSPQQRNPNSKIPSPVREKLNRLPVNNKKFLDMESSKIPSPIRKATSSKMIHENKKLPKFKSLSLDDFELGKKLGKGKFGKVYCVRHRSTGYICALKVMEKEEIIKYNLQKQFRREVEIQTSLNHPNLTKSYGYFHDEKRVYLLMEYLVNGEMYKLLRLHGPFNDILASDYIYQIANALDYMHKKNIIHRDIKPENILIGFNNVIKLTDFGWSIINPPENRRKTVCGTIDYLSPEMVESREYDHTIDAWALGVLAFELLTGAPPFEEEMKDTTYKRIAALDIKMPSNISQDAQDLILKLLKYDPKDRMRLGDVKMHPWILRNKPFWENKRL

Variants of: B1
Settings: with aurk_yeast IPL1, P38991

Q: MFGDRRKAGGLNLNGRAAIAITPTKRFTDYTGSTSVRKTDARPALSQPRVALFNTKNSSVAPRDVKSLVSLNGSKIYNFLVEYESSDAPSEQLIMKPRGKNDFIACFELIYQHLSKDYEFPRHERIEEEVSQIFKGLGYPYPLKNSYYQPMGSSHGYPHLLDALSWLIDIIRINSAVSEDTQNILFGDFMEQGKAQEKTLNYAWMTSTFRDYTNDRKAAENPSSSYWDDTKHRLRKYFEQSNEFEDMTKTAASALEMLNYECDEIEADKGNEASLKEEISRIRDDIRKAKDYLEQNLHVKQHMEKELAMVKSEQEEKISENEKVQKMVDDLKNKIELQKQIHGLTGKEVRQMNLDNNKDKEVVLEIQSELDRLSKETWKLKDEDFFKEQKSKFIHLAEQIMKILSGLNIQMNLEPLRAPTNERDLKDYWETLNKIWVPEISRQLHQRKLELETEQSRFSNKAVTAEERIQIQSETLCEAKKNEAREERIRRNERDSWKDARKHIEQRYEQLLNEKEVLLKQMKLDGSLEKEIEDETARMSATGEEHIQKRSQLEAGIRQILDLMVVEIAEIENKKIGFHVQCAGIEKAVL [T8A;S18A;S44A;S51A] was tested. Which “effect of a mutation on the interaction” value did it give?
A: disrupting interaction
